Experimental data from EP4703380A1, “INTEGRIN-TARGETING ANTIBODIES AND USE THEREOF” (NIO BIOPHARMACEUTICALS. INC., priority 2023, dated 2024).
Each block holds one binder with its values, some of them ahead of it.

Key:
[1] = target: VLA-3 (ITGA3/ITGB1) on the cell membrane; assay: cell-based or functional assay
[2] = target: recombinant human VLA-3 protein (ITGA3/ITGB1 heterodimer) (human) (UniProt P05556); assay: BLI (Octet Red), antibody on AHC sensor, 50 nM VLA-3 with 2 mM Ca2+
[3] = target: recombinant human VLA-3 protein (ITGA3/ITGB1 heterodimer) (human) (UniProt P05556); assay: BLI (Octet Red), antibody on AHC sensor, 50 nM VLA-3 with 2 mM EDTA
[4] = target: recombinant human VLA-3 protein (ITGA3/ITGB1 heterodimer) (human) (UniProt P05556); assay: SPR (Biacore T200), PS4-002 immobilised on CM5, VLA-3 as analyte, HBS-EP running buffer with 3 mM EDTA
[5] = target: recombinant human VLA-3 protein (ITGA3/ITGB1 heterodimer) (human) (UniProt P05556); assay: BLI (Octet Red), antibody on AHC sensor, 50 nM VLA-3 with 2 mM Mg2+
[6] = target: recombinant human VLA-3 protein (ITGA3/ITGB1 heterodimer) (human) (UniProt P05556); assay: ELISA, coated VLA-3 (0.125-1.5 nM), antibody 1 µg/mL
[7] = target: recombinant human VLA-3 protein (ITGA3/ITGB1 heterodimer) (human) (UniProt P05556); assay: BLI (Octet Red), antibody on AHC sensor, VLA-3 as analyte, no additive, 0 mM EDTA in the running buffer
[8] = target: recombinant human VLA-3 protein (ITGA3/ITGB1 heterodimer) (human) (UniProt P05556); assay: BLI (Octet Red), antibody on AHC sensor, 50 nM VLA-3 with 2 mM Mn2+
[9] = target: recombinant human VLA-3 protein (ITGA3/ITGB1 heterodimer) (human, UniProt P05556 21-728); assay: ELISA, coated VLA-3 (0.125-1.5 nM), antibody 1 µg/mL
Sequence of recombinant human VLA-3 protein (ITGA3/ITGB1 heterodimer) (P05556 21-728, one chain of several): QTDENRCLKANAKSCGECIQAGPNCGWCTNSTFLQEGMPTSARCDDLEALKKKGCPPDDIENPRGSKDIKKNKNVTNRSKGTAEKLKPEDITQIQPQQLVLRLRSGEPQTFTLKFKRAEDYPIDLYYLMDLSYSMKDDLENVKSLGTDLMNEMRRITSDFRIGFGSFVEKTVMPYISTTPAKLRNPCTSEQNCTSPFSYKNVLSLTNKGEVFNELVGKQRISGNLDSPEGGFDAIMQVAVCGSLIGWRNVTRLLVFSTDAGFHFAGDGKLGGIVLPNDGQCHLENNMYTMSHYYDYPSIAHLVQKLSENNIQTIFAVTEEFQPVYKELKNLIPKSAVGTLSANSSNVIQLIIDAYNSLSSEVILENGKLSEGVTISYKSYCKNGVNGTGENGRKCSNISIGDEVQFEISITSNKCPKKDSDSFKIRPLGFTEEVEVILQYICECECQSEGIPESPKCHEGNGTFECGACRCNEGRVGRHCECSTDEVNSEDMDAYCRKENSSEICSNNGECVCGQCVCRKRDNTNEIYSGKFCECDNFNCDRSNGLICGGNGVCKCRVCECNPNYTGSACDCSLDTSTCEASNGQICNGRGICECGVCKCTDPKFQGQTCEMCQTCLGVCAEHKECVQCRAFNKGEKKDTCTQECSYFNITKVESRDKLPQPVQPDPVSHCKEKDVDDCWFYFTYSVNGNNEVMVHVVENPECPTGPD

Sequence of recombinant human VLA-3 protein (ITGA3/ITGB1 heterodimer) (human) (P05556 21-728, one chain of several): as above

- IC50 (nM), cell growth inhibition (AlamarBlue), A549 cells [1]: 5.22 nM
- IC50 (nM), cell growth inhibition (AlamarBlue), BT20 cells [1]: 134 nM
- IC50 (nM), cell growth inhibition (AlamarBlue), CoCaB1 cells [1]: 2.21 nM
- IC50 (nM), cell growth inhibition (AlamarBlue), MDA-MB-231 cells [1]: 0.77 nM
- IC50 (nM), cell growth inhibition (AlamarBlue), MDA-MB-453 cells (first row) [1]: 9.79 nM
- IC50 (nM), cell growth inhibition (AlamarBlue), MDA-MB-453 cells (second row) [1]: 18.8 nM
- IC50 (nM), cell growth inhibition (AlamarBlue), MKN45 cells [1]: 14.1 nM
- IC50 (nM), cell growth inhibition (AlamarBlue), Panc-1 cells [1]: 2.7 nM
- IC50 (nM), cell growth inhibition (AlamarBlue), SCaBER cells [1]: 1.88 nM
- IC50 (nM), cell growth inhibition (AlamarBlue), SW780 cells [1]: 1.78 nM
- IC50 (nM), cell growth inhibition (AlamarBlue), UMUC-3 cells [1]: 2.1 nM
- Maximum (% inhibition), cell growth inhibition (AlamarBlue), A549 cells [1]: 77.3%
- Maximum (% inhibition), cell growth inhibition (AlamarBlue), Aspc-1 cells [1]: 51.8%
- Maximum (% inhibition), cell growth inhibition (AlamarBlue), BT20 cells [1]: 79.6%
- Maximum (% inhibition), cell growth inhibition (AlamarBlue), CoCaB1 cells [1]: 95.5%
- Maximum (% inhibition), cell growth inhibition (AlamarBlue), MDA-MB-231 cells [1]: 78%
- Maximum (% inhibition), cell growth inhibition (AlamarBlue), MDA-MB-453 cells (first row) [1]: 96.2%
- Maximum (% inhibition), cell growth inhibition (AlamarBlue), MDA-MB-453 cells (second row) [1]: 87.9%
- Maximum (% inhibition), cell growth inhibition (AlamarBlue), MDA-MB-468 cells [1]: 89.9%
- Maximum (% inhibition), cell growth inhibition (AlamarBlue), MKN45 cells [1]: 55.6%
- Maximum (% inhibition), cell growth inhibition (AlamarBlue), Panc-1 cells [1]: 73.8%
- Maximum (% inhibition), cell growth inhibition (AlamarBlue), SCaBER cells [1]: 89.7%
- Maximum (% inhibition), cell growth inhibition (AlamarBlue), SW780 cells [1]: 90.4%
- Maximum (% inhibition), cell growth inhibition (AlamarBlue), UMUC-3 cells [1]: 90.8%
B1: PS4-002-vcMMAE (PS4 maxibody-vcMMAE conjugate, WT) (Fc fusion, part only; not given: scFv linker, hinge-Fc and drug, not shown: another chain or arm of the molecule; a dimerising Fc or GST; small tags and cut ends)
VH: QVQLVQSGGGLVNPGGSLRLSCAASGFPFSDHYMSWIRQAPGKGLEWVSYISNRGYTIHYADFVKGRFTISRDNAENTLYLQMNSLRAEDTAVYYCARDRGTIDAFDLWGQGTMVTVSS
VL: QSALTQPASVSGSPGQSITIPCSGTSDDIGRYNYVSWYQQHPGKAPKLLIYDVTRRSSGVSSHFSGSKSGSTASLIISGLQADDEADYFCSSFTNNRTVVFGGGTKLTVL
modifications: vcMMAE conjugated to cysteines after partial reduction with TCEP; average DAR 4.09; sites not stated, presumabl [CUT]

- Kd [2]: 6.46 nM
- koff [2]: 0.000209 s⁻¹
- kon [2]: 32400 M⁻¹ s⁻¹
- Kd [3]: 2170 nM
- koff [3]: 0.00397 s⁻¹
- kon [3]: 1830 M⁻¹ s⁻¹
- Kd [4]: 216 nM
- koff [4]: 0.0045 s⁻¹
- kon [4]: 20900 M⁻¹ s⁻¹
- Kd [5]: 0.85 nM
- koff [5]: 3.78e-05 s⁻¹
- kon [5]: 44600 M⁻¹ s⁻¹
- EC50 [6]: 1 nM
- Kd [7]: 2.15 nM
- koff [7]: 5.9e-05 s⁻¹
- kon [7]: 32500 M⁻¹ s⁻¹
- Kd [8]: 0.23 nM
- koff [8]: 8.46e-06 s⁻¹
- kon [8]: 36500 M⁻¹ s⁻¹
B2: PS4-002 maxibody (scFv-human IgG1 Fc), wild type (Fc fusion, part only; not given: scFv linker and IgG1 hinge-Fc, not shown: another chain or arm of the molecule; a dimerising Fc or GST; small tags and cut ends)
VH: B1 VH
VL: B1 VL

- EC50 [9]: ~1 nM
B3: PS4 maxibody variant 2 (Linker-C variant) (Fc fusion)
scFv: QVQLVQSGGGLVNPGGSLRLSCAASGFPFSDHYMSWIRQAPGKGLEWVSYISNRGYTIHYADFVKGRFTISRDNAENTLYLQMNSLRAEDTAVYYCARDRGTIDAFDLWGQGTMVTVSSGGGGGSGGGSCGGGGSQSALTQPASVSGSPGQSITIPCSGTSDDIGRYNYVSWYQQHPGKAPKLLIYDVTRRSSGVSSHFSGSKSGSTASLIISGLQADDEADYFCSSFTNNRTVVFGGGTKLTVLG
notes: also called Mutant 2; L-C; not shown: Fc domain of human IgG1
